The record followed here is US20140096284A1, “METHOD FOR THE DELIVERY OF MOLECULES LYOPHILIZED ONTO MICROPARTICLES TO PLANT TISSUES” (priority 2012, published 2014).

The test system of data set [1] is onion epidermis tissue. Put plainly: Fluorescein diacetate staining, count of dead cells after bombardment. Format: cell-based. To be noted: 200 μg trypsin or 40 μg RNAse per shot lyophilized onto 0.6 μm gold. The protocol:
Onion epidermis tissues were submerged in 10 mL of MS liquid media to which 100 μL of a 5 mg mL^−1 of fluorescein diacetate (Alfa Aesar) solution in acetone were added. The samples were incubated for 2-5 minutes and directly observed under the green channel filter of the fluorescence microscope. For quantitative measurements, 12 images (10.5×8 mm) were taken with the 5× microscope objective scattered every 0.5 cm (4 columns×3 rows). The total amount of dead cells found on each image was counted.
The high concentration of protein used per shot (250 μg per shot) and the lyophilization process could cause cell death by: (1) physical damage of the potential clumps produced after lyophilizing protein and microparticles and (2) excess of intracellular protein delivery reaching toxic levels. To assess cellular death, onion epidermis tissues were stained with fluorescein diacetate, which stains in fluorescent green the living cells, while the dead ones remain dark (FIG. 7A). […]
As another example of active enzyme delivery, trypsin and RNAse A were chosen. […] The number of dead cells was measured using fluorescein diacetate staining in samples not bombarded, bombarded only with 0.6 μm gold or with 200 μg of trypsin or 40 μg of RNAse per shot. […]

The test system of data set [2] is onion epidermis tissues. The experiment in a line: Delivery of β-glucuronidase or plasmid DNA air dried onto tungsten particles to onion epidermis. Format: cell-based. To be noted: 200 μg per shot air-dried onto M5 or M17 tungsten; 1100 psi/6 cm. The protocol: M5 (0.4 μm in size) and M17 (1.1 μm in size) tungsten particles from Bio-Rad were used. 100 μg of each type of particle and 200 μg of β-glucuronidase enzyme or 1 μg of GFP expressing plasmid pLMNC95 were used per shot. The suspensions were air dried for 2 hours onto the macrocarrier-set. Onion epidermis tissues were bombarded at 1100 psi/6 cm. Samples bombarded with β-glucuronidase were incubated overnight at 37° C. in X-gluc solution as previously described.

The test system of data set [3] is mouse ear pinna tissue cells. The experiment in a line: Delivery of active β-glucuronidase to mouse ear pinna tissue cells. Format: cell-based, CD-1 mice. To be noted: 200 μg per shot air-dried with 90 μg 0.6 μm gold; 650 and 1100 psi; sixteen hours. On the procedure:
A mixture of 90 μg of 0.6 μm gold and 200 μg of β-glucuronidase per shot were air-dried onto the macrocarrier set for 2 hours. Ear pinnas of 8 week old CD-1 mice were dissected right after animals were euthanized. The tissues were disposed with the inner part of the ear upwards on an agar medium plate (FIG. 17A) and were immediately bombarded using the PDS-1000/He gene-gun at 650 psi or 1100 psi, 6 cm target distance and 28 mmHg vacuum. Samples were then soaked in X-gluc solution and incubated at 37° C. overnight. Sixteen hours later samples were examined under the microscope. […] Multiple gold particles (detected as dark dots) could be detected in different depths of the same cell (FIG. 17C). The localization of these blue cells in the bombarded tissue is the result of active β-glucuronidase protein delivery.

Data set [4] has as its system onion epidermis cell tissues. Put plainly: Bombardment of onion epidermis with liquid protein solutions. In kind it is cell-based. To be noted: liquid protein solution on macrocarrier; tissue damage was caused. The text has this:
As a control, β-glucuronidase and DS-RED2 protein solutions were poured over the macrocarrier and onion epidermis cell tissues were bombarded. […] However, the use of lesser volumes, less harsh gene-gun conditions or other liquid propelling methodologies may allow for protein delivery with less tissue damage.

The subject of data set [5] is onion epidermis tissue. The experiment in a line: Biolistic delivery of air-dried or freeze-dried protein or DNA, with or without 0.6 μm gold, to onion epidermis. Format: cell-based. On the procedure: Previously, protein and 0.6 μm gold projectiles were mixed and poured on top of a macrocarrier of the gene gun, frozen in liquid nitrogen, and lyophilized or freeze-dried. The same experiment was repeated by pouring the protein/0.6 μm gold mixture over a macrocarrier and leaving it to dry on top of a bench for 1 hour or overnight, termed “air-dried” (FIG. 10A). The experiment was done with two different proteins, β-glucuronidase and DS-RED2. Onion epidermis tissues were bombarded using these macrocarriers. An experiment was conducted using β-glucuronidase and DS-RED2, air-dried directly onto the macrocarriers without 0.6 μm gold projectiles (FIG. 10B). […] An experiment was conducted to compare DNA coating based on CaCl2/spermidine precipitation, freeze-drying or air-drying, and 0.6 μm gold particles. […] A DNA containing solution was freeze-dried or air-dried (without 0.6 μm gold projectiles) directly onto macrocarriers. Onion epidermis tissues were bombarded and 1 to 20 fluorescent cells could be observed (FIG. 15 and FIG. 16). Even though the number of cells that were transfected is much lower than when using 0.6 μm gold, protein can be delivered without the use of projectiles.

Data set [6] relates to onion epidermis tissue. Put plainly: Biolistic delivery of molecules lyophilized onto 0.6 μm gold microcarriers to onion epidermis tissue. To be noted: 275 μg per shot lyophilized onto 0.6 μm gold, one day after bombardment. Format: cell-based. The protocol: 2 μL of 0.6 μm gold particle stock was mixed with 1 μg of GFP plasmid pLMNC95 or 2 μL of a 400 ng/μL, TRITC-BSA solution. The mixture was poured on a macrocarrier, frozen in liquid nitrogen and freeze-dry for 1 hour prior to onion epidermis tissue bombardment.
Onion epidermis tissue was obtained from the scale leaves of white onion bulbs. Rectangular (3×2.5 cm) pieces were peeled right before the bombardment and placed in solid agar media (0.5 mM of 2-(N-morpholino)ethanesulfonic acid (MES), 15 g L^−1 Bacto agar (BD), pH 5.7) with the peeled side upwards. For quantitative measurements, epidermis pieces of the same scale leaf were distributed among treatments. Tobacco leaves (Nicotiana tabacum var. Petite Havana) were obtained from 3-6 week old in vitro grown plants on MS media (MS medium (Murashige and Skoog, 1962), 2% sucrose, 2.5 g L^−1 gelrite, pH 5.7). Leaves were cut right before bombardment and put with the adaxial surface up on agar media. Hill maize immature embryos were obtained from immature ears provided by the Center for Plant Transformation—Iowa State University. […]
Bright field and fluorescence images were taken using a Zeiss Axio star plus microscope. […] For the green channel fluorescence images a GFP BP filter (Chroma Technology Corp.) was used (λex=470 nm, beam splitter=495 nm and λem=525 nm). […]

B1: RNAse: enzyme (Sigma) expected to digest intracellular RNA content (protein, UniProt P61823 27-150, looked up)
Ribonuclease pancreatic: KETAAAKFERQHMDSSTSAASSSNYCNQMMKSRNLTKDRCKPVNTFVHESLADVQAVCSQKNVACKNGQTNCYQSYSTMSITDCRETGSSKYPNCAYKTTQANKHIIVACEGNPYVPVHFDASV
On to B1, for which, in data set [1], the “dead cells compared with controls without the enzymes (indirect measurement of enzyme activity)” value is recorded as “large amounts of dead cells”.

B2: trypsin: enzyme (Sigma) expected to digest intracellular protein (protein, UniProt P00760 24-246, looked up)
Serine protease 1: IVGGYTCGANTVPYQVSLNSGYHFCGGSLINSQWVVSAAHCYKSGIQVRLGEDNINVVEGNEQFISASKSIVHPSYNSNTLNNDIMLIKLKSAASLNSRVASISLPTSCASAGTQCLISGWGNTKSSGTSYPDVLKCLKAPILSDSSCKSAYPGQITSNMFCAGYLEGGKDSCQGDSGGPVVCSGKLQGIVSWGSGCAQKNKPGVYTKVCNYVSWIKQTIASN
Take B2: the “dead cells compared with controls without the enzymes (indirect measurement of enzyme activity)” value in data set [1] is “large amounts of dead cells”.

B3: β-glucuronidase: enzyme (Sigma) detected by X-gluc histochemical staining (protein, UniProt P05804 1-603, looked up)
Beta-glucuronidase: MLRPVETPTREIKKLDGLWAFSLDRENCGIDQRWWESALQESRAIAVPGSFNDQFADADIRNYAGNVWYQREVFIPKGWAGQRIVLRFDAVTHYGKVWVNNQEVMEHQGGYTPFEADVTPYVIAGKSVRITVCVNNELNWQTIPPGMVITDENGKKKQSYFHDFFNYAGIHRSVMLYTTPNTWVDDITVVTHVAQDCNHASVDWQVVANGDVSVELRDADQQVVATGQGTSGTLQVVNPHLWQPGEGYLYELCVTAKSQTECDIYPLRVGIRSVAVKGEQFLINHKPFYFTGFGRHEDADLRGKGFDNVLMVHDHALMDWIGANSYRTSHYPYAEEMLDWADEHGIVVIDETAAVGFNLSLGIGFEAGNKPKELYSEEAVNGETQQAHLQAIKELIARDKNHPSVVMWSIANEPDTRPQGAREYFAPLAEATRKLDPTRPITCVNVMFCDAHTDTISDLFDVLCLNRYYGWYVQSGDLETAEKVLEKELLAWQEKLHQPIIITEYGVDTLAGLHSMYTDMWSEEYQCAWLDMYHRVFDRVSAVVGEQVWNFADFATSQGILRVGGNKKGIFTRDRKPKSAAFLLQKRWTGMNFGEKPQQGGKQ
As for B3, the “active enzyme delivery (blue cells after X-gluc incubation)” value in data set [2] is “several cells were showing blue coloration”; in data set [3], “several blue cells were localized in the tissues”. The “protein delivery after bombardment” value is recorded as “no protein delivery was observed” in data set [4], “protein delivery also could be detected” in data set [5] (air-dried directly onto macrocarriers without 0.6 μm gold) and “protein delivery was achieved” in data set [5] (air-dried with 0.6 μm gold on macrocarrier for 1 hour or overnight). Further, the “degradation when subjected to air drying” value in data set [5] (air-dried on macrocarrier) is “not substantially degraded”. In addition, the “active enzyme delivery (blue cells after X-gluc staining)” value in data set [6] is “several blue cells could be observed”.
